According to article PMC3458741, “Studies on the substrate specificity of a GDP-mannose pyrophosphorylase from Salmonella enterica” (Beilstein Journal of Organic Chemistry, 2012):

What was measured:
Assay in all cases: purified protein
Conditions in all cases: co-substrate GTP
[1] = system: COC[C@H]1O[C@H](OP(=O)(O)O)[C@@H](O)[C@@H](O)[C@@H]1O
Excerpt: (§1) colorimetric pyrophosphate detection assay on GDP-mannose pyrophosphorylase (GDP-ManPP)

[2] = system: CO[C@@H]1[C@@H](OP(=O)(O)O)O[C@H](CO)[C@@H](O)[C@@H]1O
Excerpt: as §1

[3] = system: CO[C@@H]1[C@H](O)[C@@H](OP(=O)(O)O)O[C@H](CO)[C@H]1O
Excerpt: as §1

[4] = system: CO[C@H]1[C@H](O)[C@H](O)[C@@H](OP(=O)(O)O)O[C@@H]1CO
Excerpt: as §1

[5] = system: C[C@H]1O[C@H](OP(=O)(O)O)[C@@H](O)[C@@H](O)[C@@H]1O
Excerpt: as §1

[6] = system: O=P(O)(O)O[C@H]1O[C@H](CO)[C@@H](O)[C@H](O)[C@@H]1O
Excerpt: as §1

With “GDP-mannose pyrophosphorylase (GDP-ManPP) (Salmonella enterica subsp. enterica serovar Typhimurium str. LT2)” the Km [1] was 120 ± 18 µM, the kcat [1] was 0.45 ± 0.0167 s⁻¹ and the kcat/Km [1] was 3830 ± 1000 M⁻¹ s⁻¹. For the same substance, the Km [2] was 4000 ± 1100 µM, the kcat [2] was 1.17 ± 0.183 s⁻¹ and the kcat/Km [2] was 333 ± 167 M⁻¹ s⁻¹. It also gave a Km [3] of 200 ± 72 µM, a kcat [3] of 0.0867 ± 0.0117 s⁻¹ and a kcat/Km [3] of 433 ± 16.7 M⁻¹ s⁻¹. The Km [4] was 3400 ± 870 µM, the kcat [4] was 0.517 ± 0.0783 s⁻¹ and the kcat/Km [4] was 150 ± 83.3 M⁻¹ s⁻¹. The Km [5] was 70 ± 13 µM, the kcat [5] was 5 ± 0.217 s⁻¹ and the kcat/Km [5] was 66700 ± 16700 M⁻¹ s⁻¹. For the same substance, the Km [6] was 40 ± 6 µM, the kcat [6] was 6 ± 0.267 s⁻¹ and the kcat/Km [6] was 150000 ± 50000 M⁻¹ s⁻¹.
